In patent US20230039401A1, “COMPOSITIONS AND METHODS FOR TREATING NRP2-ASSOCIATED DISEASES” (aTyr Pharma, Inc., priority 2018, published 2023):
Entries after “also recorded” stand apart in the source; their conditions may differ.

Assays:
NRP2 [1] = target: T1, NRP2 (Homo sapiens, UniProt O60462); assay: SPR protein-protein interaction, human NRP2 over immobilized protein; type: binding; conditions: NRP2 flowed as analyte (50 nM or 20 nM); running buffer with 5 mM CaCl2
T1 construct: Fc (C); purchased R&D Systems 2215-N2
Experimental: (§1) Protein-Protein Interaction studies. […] SPR experiments were conducted on a Bio-Rad ProteOn XPR36 Protein Interaction Array instrument. Proteins were immobilized on different channels of ProteOn GLC sensor chips through amine coupling. Analyte proteins were flowed over the immobilized proteins. The sensor chip surface was regenerated between each analyte run to remove interacting proteins. Data was double referenced against an interspot (untreated chip surface) and a blank surface (activated and deactivated for amine coupling).
(§2) Studies were performed to confirm the binding specificity of Neuropilin 2 (NRP2) to Fc-HRS(2-60) using orthologous methods to those used in the large scale Retrogenix screening (Example 1). In a series of experiments, Fc-HRS(2-60) and related proteins were immobilized on SPR chips, and NRP2 and related proteins were flowed as analytes. Upon confirmation of the NRP2:Fc-HRS(2-60) interaction, the dependence on divalent cations was tested as NRP2 is known to have Ca^2+ binding sites. The effects of previously characterized NRP2 ligands on the NRP2: Fc-HRS(2-60) interaction was also tested to determine if these known ligands have competitive effects on the Fc-HRS(2-60) interaction.

mouse NRP2 = target: T2, mouse NRP2 (Mus musculus, UniProt O35375); assay: SPR protein-protein interaction, mouse NRP2 over immobilized protein; type: binding; conditions: 50 nM mouse NRP2 as analyte
T2 construct: Fc (C); purchased R&D Systems 7988-N2
Experimental: as §1, §2

rat NRP2 = target: T3, rat NRP2 (Rattus norvegicus, UniProt O35276); assay: SPR protein-protein interaction, rat NRP2 over immobilized protein; type: binding; conditions: 50 nM rat NRP2 as analyte
T3 construct: Fc (C); His (C); purchased R&D Systems 567-N2
T3 sequence (O35276 23-925): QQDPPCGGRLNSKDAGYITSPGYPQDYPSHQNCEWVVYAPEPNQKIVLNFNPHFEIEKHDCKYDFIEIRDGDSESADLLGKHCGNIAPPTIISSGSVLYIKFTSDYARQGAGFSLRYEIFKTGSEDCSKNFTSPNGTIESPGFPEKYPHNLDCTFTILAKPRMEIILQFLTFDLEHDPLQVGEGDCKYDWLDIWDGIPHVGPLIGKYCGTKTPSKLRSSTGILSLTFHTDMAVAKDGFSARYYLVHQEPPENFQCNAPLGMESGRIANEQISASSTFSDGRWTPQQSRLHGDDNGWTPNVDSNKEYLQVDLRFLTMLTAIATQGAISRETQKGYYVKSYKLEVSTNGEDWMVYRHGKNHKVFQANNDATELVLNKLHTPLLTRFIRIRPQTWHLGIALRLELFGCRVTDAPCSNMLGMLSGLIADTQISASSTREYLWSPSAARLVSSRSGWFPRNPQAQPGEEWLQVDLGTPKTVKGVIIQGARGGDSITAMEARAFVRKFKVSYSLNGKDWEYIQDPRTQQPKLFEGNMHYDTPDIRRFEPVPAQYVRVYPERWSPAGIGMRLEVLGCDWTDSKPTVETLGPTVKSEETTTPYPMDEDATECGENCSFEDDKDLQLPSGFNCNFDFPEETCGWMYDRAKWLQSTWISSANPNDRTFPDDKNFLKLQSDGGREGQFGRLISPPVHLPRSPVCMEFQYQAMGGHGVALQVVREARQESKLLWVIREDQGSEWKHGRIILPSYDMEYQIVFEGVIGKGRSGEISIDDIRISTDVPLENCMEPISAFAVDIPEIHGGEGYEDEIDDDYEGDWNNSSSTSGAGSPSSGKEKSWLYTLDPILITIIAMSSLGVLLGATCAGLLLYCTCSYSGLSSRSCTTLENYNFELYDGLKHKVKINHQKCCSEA
Experimental: as §1, §2

[2] = target: T4, cell-expressed NRP2 (NRP2a-GFP fusion protein on HEK293T cells) (Homo sapiens, UniProt O60462); assay: Immunofluorescence binding of Fc-HRS (2-60) to HEK293T cells overexpressing NRP2v2-GFP; conditions: HEK293T cells overexpressing NRP2v2-GFP, GFP Bright cells
T4 construct: host or cells: HEK293T
Experimental: Reagents: • PE anti-human IgG Fc Antibody, clone HP6017, Biolegend cat 409304 • Mouse Anti-HRS monoclonal antibody (1-96) Clone 1C8, Abnova cat H00003035-M01 • Mouse IgG2a, Isotype control antibody (MOPC-173), Biolegend cat 400223 • Recombinant Human VEGF-C Protein, R&D Systems, cat 2179-VC-025/CF • Formaldehyde, 16%, methanol free, Ultra Pure, Polysciences, cat 18814-10 • Hoechst 33342, Trihydrochloride, Trihydrate, ThermoFisher Scientific, cat H1399 • Fc-HRS (2-60) was prepared as described in PCT application PCT/US2014/029699 • Gibco DMEM, High Glucose, ThermoFisher Scientific, cat 11965092 • PolyJet™ In Vitro DNA Transfection Reagent, SignaGen, cat SL100688 • Neuropilin 2 (NRP2) (NM_003872) Human ORF Clone, Origene, cat RG220706 • Collagen Coating Solution, Cell Applications Cat 125-100 • 1×PBS containing 1% BSA, 0.9 mM CaCl2 and 20 mM glucose • Binding buffer containing 1% normal mouse IgG (sigma cat 18765) and 2.5% (Human Fc Receptor Binding Inhibitor, ebioscience 14-9161-73).
Cell culture and transfection. […]
Immunofluorescence assays on cultured cells. Binding and quantitation of Fc-HRS (2-60) to cell-expressed NRP2 was achieved using immunofluorescence microscopy. […] The Hoechst stain was replaced with 1×PBS and subsequently read on an IN Cell Analyzer 2200. 20× images were acquired and analyzed using In Cell Analyzer 1000 Workstation software. […]

[3] = target: T5, NRP2:Fc-HRS(2-60) interaction (Homo sapiens, UniProt O60462); assay: SPR competition of known NRP2 ligands with the NRP2:Fc-HRS(2-60) interaction; type: binding
T5 construct: Fc (C); purchased R&D Systems 2215-N2
Experimental: as §1, §2
(§3) A subset of the known ligands of NRP2 appears to compete binding of Fc-HRS(2-60) to NRP2.

NRP2 [4] = target: T1, NRP2; assay: SPR binding of known ligands to NRP2; conditions: known NRP2 ligands
Experimental: as §1, §3

T2 sequence (O35375 21-931): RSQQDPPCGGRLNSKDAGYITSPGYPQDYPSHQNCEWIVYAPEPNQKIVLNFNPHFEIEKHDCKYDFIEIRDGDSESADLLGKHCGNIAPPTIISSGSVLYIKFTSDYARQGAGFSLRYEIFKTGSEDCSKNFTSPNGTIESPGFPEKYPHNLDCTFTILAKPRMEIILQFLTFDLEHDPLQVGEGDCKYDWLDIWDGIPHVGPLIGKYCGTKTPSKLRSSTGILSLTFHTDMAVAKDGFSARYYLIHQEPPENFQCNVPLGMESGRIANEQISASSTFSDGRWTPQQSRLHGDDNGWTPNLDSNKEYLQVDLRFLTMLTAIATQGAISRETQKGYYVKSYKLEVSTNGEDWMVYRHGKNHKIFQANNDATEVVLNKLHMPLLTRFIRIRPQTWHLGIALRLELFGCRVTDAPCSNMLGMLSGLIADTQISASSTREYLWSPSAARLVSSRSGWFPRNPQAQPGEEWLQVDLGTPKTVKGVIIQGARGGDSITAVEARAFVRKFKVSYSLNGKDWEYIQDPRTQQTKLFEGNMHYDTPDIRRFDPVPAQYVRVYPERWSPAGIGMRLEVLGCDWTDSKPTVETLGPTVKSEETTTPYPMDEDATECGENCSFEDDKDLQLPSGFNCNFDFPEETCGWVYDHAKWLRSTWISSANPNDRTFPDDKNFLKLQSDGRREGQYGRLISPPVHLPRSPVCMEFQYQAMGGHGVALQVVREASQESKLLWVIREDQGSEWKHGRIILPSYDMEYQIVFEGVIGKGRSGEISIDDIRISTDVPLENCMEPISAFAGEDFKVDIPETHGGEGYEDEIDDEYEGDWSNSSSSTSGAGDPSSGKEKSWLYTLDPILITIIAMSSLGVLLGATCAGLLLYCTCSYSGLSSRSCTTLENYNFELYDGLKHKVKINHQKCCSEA

binding to cell-expressed NRP2a (staining intensity of anti-Fc-PE complex) [2] | effect of ligand on binding of NRP2 to Fc-HRS(2-60) (SPR) ([3]; NRP2 in the presence of the ligand over immobilized Fc-HRS(2-60)) | Competes with Fc-HRS(2-60) for NRP2 binding ([3]; SPR, NRP2 binding to immobilized Fc-HRS(2-60) in presence of ligand) | Binding to NRP2 observed by SPR (NRP2 [4]) | Substance | binding of human NRP2 to immobilized protein (SPR) (NRP2 [1]) | binding of mouse NRP2 to immobilized protein (SPR) (mouse NRP2) | binding of rat NRP2 to immobilized protein (SPR) (rat NRP2)
negligible specific binding |  |  |  | Fc-HRS(2-11): truncated form of Fc-HRS(2-60) with a 49 amino acid deletion at the C-terminus, deleting the majority of the WHEP domain | not a truncated form of Fc-HRS(2-11); also recorded: none of these NRP2 forms bind | not a truncated form of Fc-HRS(2-11); also recorded: none of these NRP2 forms bind | not a truncated form of Fc-HRS(2-11); also recorded: none of these NRP2 forms bind
 | reduced or ablated | Yes | Yes | VEGF-A165: commercial protein (Peprotech #100-20) [reference compound] |  |  | 
